± gives the half width of the 95% confidence interval.
Assays:
[1] = folding stability dG unfold from trypsin proteolysis; higher = more stable
Summary of the method: (§1)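 Designed mini-proteins with no cysteine and under 80 residues were kept only if AlphaFold2 dimer inter-PAE was above 15. In a PA-tagged cDNA display construct, they were digested with trypsin and chymotrypsin and then sequenced. K50 was inferred by Bayesian fitting of counts, and unfolding free energy was derived per protease or combined against a sequence-predicted unfolded-state K50 and a shared folded-state K50.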

[2] = folding stability dG unfold from chymotrypsin proteolysis; higher = more stable
Summary of the method: as §1

[3] = folding stability dG unfold (combined trypsin and chymotrypsin); higher = more stable
Summary of the method: as §1

Sequence | folding stability dG unfold [1] [kcal/mol] | folding stability dG unfold [2] [kcal/mol] | folding stability dG unfold [3] [kcal/mol]
SAGGSAGGSGMKITSISKLPDGSYLVTTQDPGKGTPTTVPFSTPEEGKKLKKELEEKGGKVELSAGGSAGGS [r20_177_JUSTAS] | -0.0663 ± 0.1 | -0.0692 ± 0.11 | -0.0711 ± 0.18
SAGGSAGGSGMMFELAFREIKYSPNDSVTIKAELPDGSSITIPTKKGEIKFKLPENGYVKVLGSAGGSAGGS [r12_746_JUSTAS] | -0.281 ± 0.34 | -0.514 ± 0.55 | -0.262 ± 0.2
SAGGSAGGSGMMLKIEIPVEDPGSEEKAKKIAEELAKKLGLSPKEVKIKIKVIPKLPPEEILNSAGGSAGGS [r12_1066_JUSTAS] | 0.471 ± 0.077 | 0.531 ± 0.11 | 0.582 ± 0.22
SAGGSAGGSGMMTVELTETIVSETSVVTEKVPEKGEFIVEVLETSVSVVRRTLPLALYQALLESAGGSAGGS [r12_723_JUSTAS] | 0.866 ± 0.071 | 0.631 ± 0.097 | 0.789 ± 0.087
SAGGSAGGSGMMYKVTVEIYNPANGEKIGTIEREVTSEEEAKAEIEKELPLENVKVKITIEGPSAGGSAGGS [r12_578_JUSTAS] | 0.846 ± 0.084 | 0.818 ± 0.18 | 0.983 ± 0.25
SAGGSAGGSGMTEVVAEKKYPNEVILVTKEPDSYYIVKVTLKDGKVVEKENLGKISPDDPSILSAGGSAGGS [r12_154_JUSTAS] | -0.0464 ± 0.065 | -0.458 ± 0.39 | -0.0617 ± 0.22
SAGGSAGGSGMTTTLTTEPRPDSTVVTTTTTTPTSVTTTTTVYDPDGNVVSTTTTTTPLPATSSAGGSAGGS [r12_710_JUSTAS] | 1.73 ± 0.059 | 0.257 ± 0.018 | 1.11 ± 0.028
SAGGSAGGSGNSKLTATLTLEFYDPKTGKKIAKIELKPVITTLPNGTAKIDVEYKITFTNEDDSAGGSAGGS [r12_629_TrMRF] | 2.6 ± 0.14 | 3.74 ± 0.11 | 3.39 ± 0.11
SAGGSAGGSGSFSLSFPDADGVSVTLDPNTGIVTMSFNRPDANYTITLERYPDSIVVKEIKLPSAGGSAGGS [r20_60_JUSTAS] | 1.05 ± 0.026 | 1.48 ± 0.1 | 1.32 ± 0.062
SAGGSAGGSGSMKVYTHNVPPGQELTITITRGSSSTTLTFPPNTTVTITVPTSSPATITLTAPSAGGSAGGS [r12_550_JUSTAS] | 1.39 ± 0.031 | 1.87 ± 0.054 | 1.74 ± 0.07
SAGGSAGGSGSSTEVTTTTLPDTSYTTTNSTTTTFSPDQPEAVEAGLPVPSTVTTTTTTSPAGSAGGSAGGS [r20_138_JUSTAS] | 0.918 ± 0.056 | 0.0599 ± 0.1 | 0.59 ± 0.12
SAGGSAGGSGSTVVEVEFPDARIVITVEPPGVLTVTVERPPFPVETVRLPDMTVEEAVAYALASAGGSAGGS [r20_8_JUSTAS] | 1.76 ± 0.053 | 1.14 ± 0.098 | 1.48 ± 0.074
SAGGSAGGSIKPGQKVKIEIKVEEVDGKLVITAKVYNKDGKLIYEAEIVIENGKIKEVKITPPSAGGSAGGS [r12_264_TrROS_Hall] | 2.58 ± 0.16 | 3.11 ± 0.31 | 2.9 ± 0.34
SAGGSAGGSIPEILKKIGISPEVVTEVEVTPVEKLPDSLVVKVTYTYKLPNGTTETKTVTVPIGSAGGSAGG [r6_776_JUSTAS] | 2.14 ± 0.091 | 2.76 ± 0.034 | 2.66 ± 0.13
SAGGSAGGSIRIIFPVDNPEQAENIAEEIAERFGIQIEDIEVEQVPNGMYIVTFEVKIPPEMISAGGSAGGS [r12_577_TrROS] | 2.41 ± 0.13 | 2.28 ± 0.036 | 2.38 ± 0.096
SAGGSAGGSIRRDENGNFRVRIKVRFPGNGRKRTIEIPFDNATLEEIRKQAIDHGIRPIEIIPSAGGSAGGS [r12_792_TrROS] | 0.993 ± 0.052 | 1.35 ± 0.053 | 1.24 ± 0.047
SAGGSAGGSISQIKSKIKKILEEKGLKPTKIVIKKTEKLKNKIKVEVEVEIGKGPKISMIIEIESAGGSAGG [r6_841_JUSTAS] | 3.89 ± 0.21 | 2.43 ± 0.16 | 3.19 ± 0.22
SAGGSAGGSITIEIPGASSLEEAIEQAEVVVNEIVKKGYPGKPIKVTVILPGTGEAFTFEVPLESAGGSAGG [r6_237_TrMRF] | 2.02 ± 0.11 | 2.4 ± 0.047 | 2.19 ± 0.12

Sequence | folding stability dG unfold [1] [kcal/mol] | folding stability dG unfold [2] [kcal/mol] | folding stability dG unfold [3] [kcal/mol]
SAGGSAGGSIWIPPNHSVEEFAKEIQDKGNAEVKRDEPGWYKIKSKNNKPKKRIRFQANPEQFSAGGSAGGS [r20_236_TrROS] | -0.163 ± 0.5 | 0.24 ± 0.53 | -0.046 ± 0.43
SAGGSAGGSKAEVFETPDGLVVVVVPTEDSVRAFVFFPDGYIAEFDFPTGKIVRIFSPDEEIASAGGSAGGS [r12_235_TrMRF] | 2.8 ± 0.09 | 3.55 ± 0.052 | 3.27 ± 0.079
SAGGSAGGSKAKIEVLEVFPDYIVYKIETENPVIAVIVPLPNGKVKIFVFNPNGEPIAEFELGSAGGSAGGS [r12_1061_TrMRF] | 2.04 ± 0.18 | 3.88 ± 0.062 | 3.4 ± 0.17
SAGGSAGGSKEIVIKVNVSEEDLKEKAEELLKKLEELLPPGAKIKKIEIEYDEETGELVIKIESAGGSAGGS [r12_308_TrROS_Hall] | 2.49 ± 0.22 | 1.94 ± 0.15 | 2.26 ± 0.18
SAGGSAGGSKGVKELVIVVPPDKPEKIEEFLKKLRDEYAKDIKVLEVKETPDGGYIAKIKITDSAGGSAGGS [r12_91_TrMRF] | 1.4 ± 0.041 | 1.96 ± 0.071 | 1.85 ± 0.12
SAGGSAGGSKIEIHVQVSPELSPEEALERIRREIEEALPEELKDISLDDIIITVYPSHPDVPLSAGGSAGGS [r12_384_TrMRF] | 1.09 ± 0.047 | -0.0223 ± 0.053 | 0.643 ± 0.099
SAGGSAGGSKIKIYPYSTKGKNEVYYLIETENNYLYIKVTIYYDPKTGKPVKIEIKEIFTLPKSAGGSAGGS [r12_70_TrMRF] | 2.44 ± 0.09 | 3.07 ± 0.12 | 2.57 ± 0.26
SAGGSAGGSKIPPNQFIVRIEIKRRKPNGEKRKHEIIIPVGMPLDTLRDHAPPGYEITDIEVISAGGSAGGS [r12_597_TrROS] | 1.17 ± 0.023 | 1.8 ± 0.021 | 1.6 ± 0.05
SAGGSAGGSKITIKLIKNGEIVEEKEIEDKKTGKKIKIKAIKKDGKLYLVIEVDGKKYVIPLPSAGGSAGGS [r12_994_TrROS_Hall] | 2.02 ± 0.23 | 3.93 ± 0.089 | 3.57 ± 0.39
SAGGSAGGSKKEYLVLVYNPATGEPFPILAPDDVPFEELAKKIADEILKGLPKDVKIEFVKLGSAGGSAGGS [r20_213_TrMRF] | 0.808 ± 0.086 | 0.795 ± 0.061 | 0.874 ± 0.17
SAGGSAGGSKKKITVKIEEVKLNPETGKLVLVKIKLPDGKELVFKTPEEIENLPGAEFEVYELSAGGSAGGS [r20_192_TrROS_Hall] | 1.53 ± 0.14 | 1.47 ± 0.13 | 1.45 ± 0.27
SAGGSAGGSKKKKKPKKKKYIVIKVDMSLEEVKKLISKLLGFEEGEKIEIVKVDPENKYIVIKSAGGSAGGS [r12_815_TrROS_Hall] | 2.01 ± 0.072 | 2.35 ± 0.11 | 2.08 ± 0.27
SAGGSAGGSKKKLTLTLKVEYVDEETGEKRTVTLTITAESEEEAKAALEELAKKLPPGARIEVSAGGSAGGS [r20_211_TrROS_Hall] | 3.3 ± 0.16 | 4.44 ± 0.11 | 4.21 ± 0.19
SAGGSAGGSKKKVKVVKVEKPEGDYYVVTVYYEDGKLLKKVVFPKGVKPEEVLEKVKKLVEEESAGGSAGGS [r12_798_TrMRF] | 1.95 ± 0.043 | 2.82 ± 0.049 | 2.51 ± 0.076
SAGGSAGGSKKPIPVKVIETKPDPEIGGITTVELEFPDGSKATFTSIEDIEKIPDIEVEIKLGSAGGSAGGS [r20_192_TrMRF] | 0.591 ± 0.027 | 0.639 ± 0.043 | 0.648 ± 0.056
SAGGSAGGSKKRTILIQFPNGSPEEAVDNIKNWLRALGNEPIPLEDVKIQWYPGNPGYFQIEISAGGSAGGS [r12_122_TrROS] | 1.81 ± 0.027 | 2.94 ± 0.042 | 2.53 ± 0.12
SAGGSAGGSKKVKIEINVVVPPGMTPEKAKQMAEEFAREIAEAYGGKDVKVKVRIMYIPPDQFSAGGSAGGS [r12_522_TrROS] | 2.04 ± 0.084 | 2.19 ± 0.066 | 2.08 ± 0.13
SAGGSAGGSKKVKVTIEYDKETGVVKVTVEDPETGEKYTVTAKFEFDKNGKLVKVEVVSIEKESAGGSAGGS [r12_791_TrROS_Hall] | 2.71 ± 0.14 | 3.94 ± 0.11 | 3.67 ± 0.11
